Assay results reported in paper PMC6802964 (2019).

What was measured:
[1] = molecular target: T1, Myo1 IQ12 (Schizosaccharomyces pombe, UniProt Q9Y7Z8); assay: FRET
T1 chain: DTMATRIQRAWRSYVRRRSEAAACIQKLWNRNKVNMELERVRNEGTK

[2] = molecular target: T2, CyPet–Myo1^IQ12S742D–YPet FRET reporter protein (S742D phosphomimetic) (S. pombe); assay: FRET
T2 chain: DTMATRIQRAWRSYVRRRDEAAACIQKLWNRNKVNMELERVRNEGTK

[3] = molecular target: T3, CyPet–Myo1^IQ12–YPet FRET reporter protein (S. pombe); assay: FRET; first site (Kd1)
T3 chain: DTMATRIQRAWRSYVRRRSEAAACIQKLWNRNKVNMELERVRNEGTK

[4] = molecular target: T2, CyPet–Myo1^IQ12S742D–YPet FRET reporter …; assay: FRET; second site (Kd2)
[5] = molecular target: T4, CyPet–Myo1^IQ1–YPet FRET reporter protein (S. pombe); assay: FRET
T4 chain: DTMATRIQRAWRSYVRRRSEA

[6] = molecular target: T2, CyPet–Myo1^IQ12S742D–YPet FRET reporter …; assay: FRET; first site (Kd1)

B1: Cam2 (protein)
chain: MPASKEQTDEMKEAFVLYDIDKDGLIPTSHVGSVLRSLGINVTDAELAKLSNELGDAIDEKKFMSFVSNKLRETESEEEYIKAFRVFDKDNSGYIETAKFADYMKTLGEKLSDNEVQLMVQEADPTNSGSFDYYDFVQRIMAK
Kd [1]: 1100 nM

B2: Cam2 (calcium-insensitive calmodulin-like protein) (natural protein)
chain: MPASKEQTDEMKEAFVLYDIDKDGLIPTSHVGSVLRSLGINVTDAELAKLSNELGDAIDEKKFMSFVSNKLRETESEEEYIKAFRVFDKDNSGYIETAKFADYMKTLGEKLSDNEVQLMVQEADPTNSGSFDYYDFVQRIMAK
Kd [2]: 250 nM | Kd [3]: 20 nM

B3: Cam1 (wild type, amino-terminally acetylated fission yeast calmodulin) (natural protein)
chain: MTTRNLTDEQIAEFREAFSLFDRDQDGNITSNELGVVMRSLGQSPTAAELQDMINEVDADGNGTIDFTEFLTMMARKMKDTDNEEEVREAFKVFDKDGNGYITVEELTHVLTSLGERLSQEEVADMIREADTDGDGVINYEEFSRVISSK
modifications: amino-terminally (Nt) acetylated
Kd [4]: 540 nM | Kd [5]: 60 nM | Kd [6]: 90 nM | Kd [3]: 40 nM

B4: Cam1 (protein)
chain: not shown
Kd [1]: 680 nM
